# From patent US8246957 (dated 2012)
# Tests used:
# Assay in all cases: cell-based or functional assay
# [1] = molecular target: T1, gp120 of HIV-1 primary isolate ZA009 (clade C) (HIV-1 strain ZA009)
# [2] = molecular target: gp120 of HIV-1 primary isolate Ug046 (clade D) (HIV-1 strain Ug046)
# [3] = molecular target: T1, gp120 of HIV-1 primary isolate ZA009 …; remark: listed apart in the source
# [4] = molecular target: gp120 of HIV-1 primary isolate strain 23135 (clade B) (HIV-1 strain 23135)
binder,measurement,setting,value
Fv JL427 (scFv) scFv: QSVLTQPPSVSGAPGQRVTISCSGSSSNFGLNYVTWQGHFPGTAPKLLIYRNDQRPLGVPARFSGSKSGTSASLAISGLRSEDEADYYCQSYDNSLSGWVFGGGYQLYVLGSSGGGGSGGGGSGGSAQVQLQQSGGGLVQPGRSLRLSCAASGFTFSSYGMHWVRQAPGKGLEWVSYIGRSGSHTNYADSVKGRFTISRDNSKNTLYLQINSLRAEDTAVYYCARGLPNYGMDIWGQGTTVTVSS,"IC50, HIV-1 neutralization, independent preparations (N=3, mean and s.d.)",[1],0.3 µg/mL
same,"IC50, HIV-1 neutralization (p24, PBMC hosts)",[2],5.5 µg Ab fragment/ml
same,"IC90, HIV-1 neutralization (p24, PBMC hosts)",[2],12.7 µg Ab fragment/ml
same,"IC50, HIV-1 neutralization (p24, PBMC hosts)",[3],0.3 µg Ab fragment/ml
same,"IC90, HIV-1 neutralization (p24, PBMC hosts)",[3],5.7 µg Ab fragment/ml
same,"IC50, HIV-1 neutralization (p24, PBMC hosts)",[4],22.4 µg Ab fragment/ml
same,"IC90, HIV-1 neutralization (p24, PBMC hosts)",[4],36.7 µg Ab fragment/ml
